Paper PMC3477141, “Repositioning Antimicrobial Agent Pentamidine as a Disruptor of the Lateral Interactions of Transmembrane Domain 5 of EBV Latent Membrane Protein 1” (PLoS ONE, 2012)
Where no end group is shown, it is not given here.

B1: coumarin labeled LMP-1 TMD-5 peptide (peptide)
peptide: {7‑hydroxycoumarin‑3‑carboxylic acid}-GGGPGWQLLAFFLAFFLDLILLIIALYLGPGG
notes: flank between the coumarin label and TMD-5; transmembrane domain 5 (TMD-5) of latent membrane protein 1 (LMP-1) of Epstein-Barr virus; C-terminal flank; also called coumarin labeled TMD-5; source: synthetic peptide, labeled with coumarin on the resin, purified by reverse phase HPLC
B2: LMP-1 TMD-5 peptide KKKK-TMD-5-KKKK (peptide)
peptide: KKKKWQLLAFFLAFFLDLILLIIALYLKKKK
notes: lysine flank added to increase the solubility of the peptide; transmembrane domain 5 (TMD-5) of latent membrane protein 1 (LMP-1) of Epstein-Barr virus; source: synthetic peptide, purified by reverse phase HPLC

Tests used:
[1] = biological target: the molecule itself; assay: coumarin fluorescence dequenching (self-quenching) assay; 100 nM coumarin labeled TMD-5 in 50 mM HEPES pH 7.4 with 150 uM C14 betaine micelles, room temperature overnight; excitation 360 nm, emission 430 nm; with or without 64 uM pentamidine
[2] = biological target: the molecule itself; assay: Bis-Tris SDS-PAGE; 12% NuPAGE Bis-Tris gel, MES SDS running buffer, room temperature; 200 uM TMD-5 peptide in Laemmli sample buffer overnight, heated at 90 C for 7 min; Coomassie stain; pentamidine to peptide ratios 0 to 20

Protein	binding result [1]	stoichiometry N [2]
B1	binds	
B2		3
